Data set [1] deals with the molecule itself. Briefly: SEC; MpCAPP-MBP on Superdex 200 10/300. (In general: In gel filtration, larger molecules generally elute earlier.)
The target in data set [2] is T1, MpAgo, recombinant purified (Marinitoga piezophila, UniProt H2J4R4 1-639).
T1 construct: Argonaute, Marinitoga piezophila, expressed from pET-6His-MBP-MpAgo (Addgene, number not given); His-MBP tag removed with HRV 3C protease; source: E. coli BL21(DE3)pLysS, purified (CoHis resin, tag removal, heparin, Superdex 200)
T1 sequence (looked up): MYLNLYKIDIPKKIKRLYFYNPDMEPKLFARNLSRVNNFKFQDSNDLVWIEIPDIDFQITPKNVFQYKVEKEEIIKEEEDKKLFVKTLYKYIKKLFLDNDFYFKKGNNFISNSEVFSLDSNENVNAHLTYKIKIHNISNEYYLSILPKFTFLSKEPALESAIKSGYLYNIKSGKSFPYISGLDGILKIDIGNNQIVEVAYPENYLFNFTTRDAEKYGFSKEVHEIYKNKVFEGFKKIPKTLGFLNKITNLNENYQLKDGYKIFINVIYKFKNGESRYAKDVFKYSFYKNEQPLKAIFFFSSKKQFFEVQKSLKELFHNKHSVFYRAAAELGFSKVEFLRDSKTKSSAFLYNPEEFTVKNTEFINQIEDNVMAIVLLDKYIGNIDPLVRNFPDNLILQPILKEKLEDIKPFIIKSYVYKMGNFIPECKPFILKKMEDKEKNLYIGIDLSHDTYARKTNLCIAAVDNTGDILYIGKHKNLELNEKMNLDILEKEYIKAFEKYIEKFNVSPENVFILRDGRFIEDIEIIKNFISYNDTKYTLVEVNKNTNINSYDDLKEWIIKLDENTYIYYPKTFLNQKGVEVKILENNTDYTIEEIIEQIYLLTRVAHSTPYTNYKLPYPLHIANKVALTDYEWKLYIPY
Description: pull-down; bait MpCAPP-MBP (20 µg) pre-bound to amylose resin and washed; one prey protein (20 µg) added in 200 µl; 25 mM HEPES pH 7.5, 100 mM NaCl, 50 mM KCl, 3 mM MgCl2, 5% glycerol, 0.5 mM TCEP, 0.1% IGEPAL CA-630; 4 °C, 45 min; Coomassie-stained SDS-PAGE. The note with it: both partners purified.

B1: MpCAPP with C-terminal MBP fusion (MpCAPP-MBP), recombinant (enzyme, Marinitoga piezophila, UniProt H2J4R1 1-546, looked up)
chain: MNFKELAFKAEEDFDFEKAIEYYKKAFNELTINDDSLIRYANLLFDFQKFEEAEPIFEKIVSEINDSEYMSKLAIIYEENNKFEKALKIYKELGIESKVKELSDKIELKAPSQNAIKRFMTLFSGREDVFSIQYEGGYRPIRRPLNFHDIKDHFSGKKTLGIYLLKKNDTVKFAAYDIDIKKHYLNREDKFVYEENSKKVAKRLSRELNLENIIHYFEFTGNRGYHIWIFFDIPVSAYKIKYIMEKILDRIELEEGIDVEIFPKQTSLNGGLGNLIKVPLGVHKKTGKKCLFVDNDFNVIENQIEFLNNIKENKATEIDKLFREIFNENDYDDFNVTYKKRTTSSKNSASKKIKSSIRKTLPKSNKNIFTQMIEGCHILKQINEKIEKEAYITEEEEMIFIKSLANLENSKKFIEMKLSQTINFSKKRIDMIIKQSLGVPITCEEIRKIILNKDISLSLENCTCKFQGNYNSPYAIVENIEEMFLDKIDINDIAKKIVEKNAEKFEIEKEIKNLKRMIAKKMGDSKELRTEIGTIKRFGDDIEIIL
notes: MpCAPP, Marinitoga piezophila, Marpi_0402 / WP_014295918.1; the MBP fusion has a size of ~108 kDa; Codon-optimised gene in Supplementary Note 4; cloning details in Supplementary Data 3; also called MpCAPP WT; CAPP WT (C-terminal MBP); source: E. coli BL21 (DE3), purified (cobalt NTA, amylose resin); not shown: MBP, C-terminal, kept
Consider B1, for which the binding result in data set [1] and in data set [2] was “binds” in each case.

For the origin of these results see paper PMC8211822, “CRISPR-Associated Primase-Polymerases are implicated in prokaryotic CRISPR-Cas adaptation” (Nature Communications, 2021).
